Measured values published in patent EP4039268A1 (IMBA-Institut für Molekulare Biotechnologie GmbH, dated 2022).

B1: Mrc2_7 CRD-mouse IgG2a-Fc fusion protein (Fc fusion)
chain: YLNHTFRLLQKPLRWKDALLLCESRNASLAHVPDPYTQAFLTQAARGLQTPLWIGLASEEGSRRYSWLSEEPLNYVSWQDEEPQHSGGCAYVDVDGTWRTTSCDTKLQGAVCGGGSGGGSGGGS
B2: Lgals2 CRD-mouse IgG2a-Fc fusion protein (Fc fusion)
chain: KFEVKDLNMKPGMSLKIKGKIHNDVDRFLINLGQGKETLNLHFNPRFDESTIVCNTSEGGRWGQEQRENHMCFSPGSEVKITITFQDKDFKVTLPDGHQLTFPNRLGHNQLHYLSMGGLQISSFKLEGGGSGGGSGGGS
B3: Mbl2 CRD-mouse IgG2a-Fc fusion protein (Fc fusion)
chain: KVGKKYFVSSVKKMSLDRVKALCSEFQGSVATPRNAEENSAIQKVAKDIAYLGITDVRVEGSFEDLTGNRVRYTNWNDGEPNNTGDGEDCVVILGNGKWNDVPCSDSFLAICEGGGSGGGSGGGS
B4: Klrd1 CRD-mouse IgG2a-Fc fusion protein (Fc fusion)
chain: HQCNCYFISKEEKSWKRSRDFCASQNSSLLQPQSRNELSFMNFSQTFFWIGMHYSEKRNAWLWEDGTVPSKDLFPEFSVIRPEHCIVYSPSKSVSAESCENKNRYICKGGGSGGGSGGGS
B5: Ly75_8 CRD-mouse IgG2a-Fc fusion protein (Fc fusion)
chain: FQNSCYNFMITNNRHKTVTPEEVQSTCEKLHSKAHSLSIRNEEENTFVVEQLLYFNYIASWVMLGITYENNSLMWFDKTALSYTHWRTGRPTVKNGKFLAGLSTDGFWDIQSFNVIEETLHFYQGGGSGGGSGGGS
B6: Cd207 CRD-mouse IgG2a-Fc fusion protein (Fc fusion)
chain: FSGNFYYFSRTPKTWYSAEQFCISRKAHLTSVSSESEQKFLYKAADGIPHWIGLTKAGSEGDWYWVDQTSFNKEQSRRFWIPGEPNNAGNNEHCANIRVSALKCWNDGPCDNTFLFICKGGGSGGGSGGGS
B7: Lgals8_2 CRD-mouse IgG2a-Fc fusion protein (Fc fusion)
chain: FEARLNASMGPGRTVVIKGEVNTNARSFNVDLVAGKTRDIALHLNPRLNVKAFVRNSFLQDAWGEEERNITCFPFSSGMYFEMIIYCDVREFKVAINGVHSLEYKHRFKDLSSIDTLSVDGDIRLLDVRSWGGGSGGGSGGGS
B8: Klrb1 CRD-mouse IgG2a-Fc fusion protein (Fc fusion)
chain: HCDKCLFTSQTSRPWADGLVDCNLKGATLLLIQDEEELRLLQNFSKGKGQQFYIGLKYEEVDKVWKWMNGSILNTNLLQITGKDEENSCALISQTEVFSDSCSSDNHWICQGGGSGGGSGGGS
B9: Lgals12_2 CRD-mouse IgG2a-Fc fusion protein (Fc fusion)
chain: CSRALPRGLWPGQVIVVRGLVLKEPKDFTLSLKDGTTHVPVTLRASFTDRTLAWVSSWGRKKLISAPFLFHPQRFFEVLLLCQEGGLKLALNGQGLGATSLDQKALEQLRELRISGNVHLYCVHCGGGSGGGSGGGS
B10: Cd209a CRD-mouse IgG2a-Fc fusion protein (Fc fusion)
chain: FQGSCYFFSVAQKSWNDSATACHNVGAQLVVIKSDEEQNFLQQTSKKRGYTWMGLIDMSKESTWYWVDGSPLTLSFMKYWSKGEPNNLGEEDCAEFRDDGWNDTKCTNKKFWICKGGGSGGGSGGGS
B11: Mrc1_1 CRD-mouse IgG2a-Fc fusion protein (Fc fusion)
chain: LTGILYQINSKSALTWHQARASCKQQNADLLSVTEIHEQMYLTGLTSSLSSGLWIGLNSLSVRSGWQWAGGSPFRYLNWLPGSPSSEPGKSCVSLNPGKNAKWENLECVQKLGYICKGGGSGGGSGGGS
B12: Lgals8_1 CRD-mouse IgG2a-Fc fusion protein (Fc fusion)
chain: YVGTITEQLKPGSLIVIRGHVPKDSERFQVDFQLGNSLKPRADVAFHFNPRFKRSSCIVCNTLTQEKWGWEEITYDMPFRKEKSFEIVFMVLKNKFQVAVNGRHVLLYAHRISPEQIDTVGIYGKVNIHSIGFRGGGSGGGSGGGS
B13: Mrc1_2 CRD-mouse IgG2a-Fc fusion protein (Fc fusion)
chain: YAGHCYRIHREEKKIQKYALQACRKEGGDLASIHSIEEFDFIFSQLGYEPNDELWIGLNDIKIQMYFEWSDGTPVTFTKWLPGEPSHENNRQEDCVVMKGKDGYWADRACEQPLGYICKGGGSGGGSGGGS
B14: Mrc2_2 CRD-mouse IgG2a-Fc fusion protein (Fc fusion)
chain: FQGHCYRLQAEKRSWQESKRACLRGGGDLLSIHSMAELEFITKQIKQEVEELWIGLNDLKLQMNFEWSDGSLVSFTHWHPFEPNNFRDSLEDCVTIWGPEGRWNDSPCNQSLPSICKGGGSGGGSGGGS
B15: Klri2 CRD-mouse IgG2a-Fc fusion protein (Fc fusion)
chain: FGNNFYCVFRENSKTWVESQSACEELNSHLVIIDSKAEVENLLLFEMDGWILHRMDGTNSSRLWGNDIKIRNTLMNDSEKKNHSCHYLRGNIFMPDECSAKKTYICEGGGSGGGSGGGS
B16: Ly75_6 CRD-mouse IgG2a-Fc fusion protein (Fc fusion)
chain: FQNKCFLKVNSGPVTFSQASGICHSYGGTLPSVLSRGEQDFIISLLPEMEASLWIGLRWTAYERINRWTDNRELTYSNFHPLLVGRRLSIPTNFFDDESHFHCALILNLKKSPLTGTWNFTSCSERHSLSLCQKGGGSGGGSGGGS
B17: Grifin CRD-mouse IgG2a-Fc fusion protein (Fc fusion)
chain: FEAFCAGGLAPGWSLTVQGHADAGEEKFEINFLTDAGDIAFHVKPRFSSATVVGNAFQGGRWGQEEVSSIFPLTLGEPFEMEVSADAEHFHIYAQEQKVLQFPHRHRPLATITRVRVLSEHRLAQVELAGGGSGGGSGGGS
B18: Lgals4_2 CRD-mouse IgG2a-Fc fusion protein (Fc fusion)
chain: YVGALQGGLTVRRTIIIKGYVLPTARNFVINFKVGSSGDIALHLNPRIGDSVVRNSFMNGSWGAEERKVAYNPFGPGQFFDLSIRCGMDRFKVFANGQHLFDFSHRFQAFQMVDTLEINGDITLSYVQIGGGSGGGSGGGS
B19: Mrc2_3 CRD-mouse IgG2a-Fc fusion protein (Fc fusion)
chain: HSPSCYWLGEDQVIYSDARRLCTDHGSQLVTITNRFEQAFVSSLIYNWEGEYFWTALQDLNSTGSFRWLSGDEVIYTHWNRDQPGYRRGGCVALATGSAMGLWEVKNCTSFRARYICGGGSGGGSGGGS
B20: Klrb1a CRD-mouse IgG2a-Fc fusion protein (Fc fusion)
chain: ECPQDWLSHRDKCFHVSHVSNTWEEGLVDCDGKGATLMLIQDQEELRFLLDSIKEKYNSFWIGLRYTLPDMNWKWINGSTLNSDVLKITDDTENDSCAAISGDKVTFESCNSDNRWICQKGGGSGGGSGGGS
B21: Lgalslb CRD-mouse IgG2a-Fc fusion protein (Fc fusion)
chain: YFRGHIKGGMRPGKKVLVMGIVDHNPKSFAISLTCGDSEDPPADVAIELKVVFTNQQVFRNSCISGESDEENLAFPYFPFVPDQPFRMEIFCQQPCFRVLVDGHHLFDFYHRIQTLSAIDSIKISGDLQIGGGSGGGSGGGS
B22: Cd209d CRD-mouse IgG2a-Fc fusion protein (Fc fusion)
chain: FFNGSCYFFSKSQRNWHNSTTACQELGAQLVIIETDEEQTFLQQTSKARGPTWMGLSDMHNEATWHWVDGSPLSPSFTRYWNRGEPNNVGDEDCAEFSGDGWNDLSCDKLLFWICKGGGSGGGSGGGS

Key:
[1] = target: T1, monomeric SARS-CoV-2 receptor binding domain (RBD-H6) (SARS-CoV-2, UniProt P0DTC2 319-541); experiment: ELISA screen
T1 construct: Made in HEK293-6E cells; also called RBD Spike; monomeric RBD

[2] = target: T2, human recombinant soluble ACE2 (human, UniProt Q9BYF1 18-740); experiment: ELISA screen
T2 construct: also called hrsACE2

[3] = target: T3, full-length trimeric SARS-CoV-2 Spike protein (Spike-H6) (SARS-CoV-2, N-glycosylated (22 N-glycosylation sites)); experiment: ELISA screen
T3 construct: also called trimeric Spike; full-length Spike-H6

[4] = target: T2, human recombinant soluble ACE2; experiment: ELISA

Row | Binder | Mean normalized OD [1] [OD] | Mean normalized OD [2] [OD] | Mean normalized OD [3] [OD] | binding result [4]
1 | B1 | 0.002 | 0 | 0.002 | no binding (tested: 10 µg/ml)
2 | B2 | 0.018 | 0.031 | 0.035 | no binding (tested: 10 µg/ml)
3 | B3 | 0.001 | 0 | 0.14 | no binding (tested: 10 µg/ml)
4 | B4 | 0.004 | 0.006 | 0.003 | no binding (tested: 10 µg/ml)
5 | B5 | 0.007 | 0.054 | 0.011 | no binding (tested: 10 µg/ml)
6 | B6 | 0.118 | 0.123 | 0.028 | no binding (tested: 10 µg/ml)
7 | B7 | 0.012 | 0.074 | 0.037 | no binding (tested: 10 µg/ml)
8 | B8 | 0.005 | 0.012 | 0.002 | no binding (tested: 10 µg/ml)
9 | B9 | 0.009 | 0.031 | 0.025 | no binding (tested: 10 µg/ml)
10 | B10 | 0.028 | 0.049 | 0.014 | no binding (tested: 10 µg/ml)
11 | B11 | 0.076 | 0.161 | 0.109 | no binding (tested: 10 µg/ml)
12 | B12 | 0.031 | 0.062 | 0.019 | no binding (tested: 10 µg/ml)
13 | B13 | 0.106 | 0 | -0.028 | no binding (tested: 10 µg/ml)
14 | B14 | 0.038 | 0.009 | 0.017 | no binding (tested: 10 µg/ml)
15 | B15 | 0.001 | 0.005 | 0.006 | no binding (tested: 10 µg/ml)
16 | B16 | 0.003 | 0.005 | 0.007 | no binding (tested: 10 µg/ml)
17 | B17 | 0 | 0.035 | 0.004 | no binding (tested: 10 µg/ml)
18 | B18 | 0.014 | 0.031 | 0.034 | no binding (tested: 10 µg/ml)
19 | B19 | 0.003 | 0.01 | 0.003 | no binding (tested: 10 µg/ml)
20 | B20 | 0.002 | 0 | 0 | no binding (tested: 10 µg/ml)
21 | B21 | 0.01 | 0.047 | 0.026 | no binding (tested: 10 µg/ml)
22 | B22 | 0.019 | 0.039 | 0.01 | no binding (tested: 10 µg/ml)
